Article PMC11522559

How the values were obtained:
[1] = target: Alexa647-labeled microtubules (porcine brain tubulin), antiparallel overlaps (porcine) (UniProt P02550)
[2] = target: Alexa647-labeled microtubules (porcine brain tubulin), antiparallel overlaps (porcine) (UniProt P02550); remark: listed apart in the source

Sequence of UniProt P02550 (P02550 whole entry): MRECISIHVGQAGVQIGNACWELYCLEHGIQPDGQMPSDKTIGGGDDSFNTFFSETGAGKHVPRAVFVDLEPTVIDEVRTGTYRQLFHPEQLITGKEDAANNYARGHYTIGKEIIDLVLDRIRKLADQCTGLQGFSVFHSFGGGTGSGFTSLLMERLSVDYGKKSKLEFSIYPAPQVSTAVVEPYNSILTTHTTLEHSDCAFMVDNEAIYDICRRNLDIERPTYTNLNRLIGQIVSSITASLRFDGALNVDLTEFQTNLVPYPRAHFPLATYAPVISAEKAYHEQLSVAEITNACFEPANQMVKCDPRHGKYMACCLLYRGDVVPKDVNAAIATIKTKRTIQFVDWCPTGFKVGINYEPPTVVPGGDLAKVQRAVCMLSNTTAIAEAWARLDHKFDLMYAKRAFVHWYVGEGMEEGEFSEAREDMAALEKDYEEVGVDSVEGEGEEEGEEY

Substance: PLK1-phosphorylated PRC1-Alexa546 (human PRC1 isoform 2) (from UniProt O43663-4 1-606) (natural protein)
- Kd [1]: 9.6 nM

Substance: CDK1-phosphorylated PRC1-Alexa546 (human PRC1 isoform 2) (from UniProt O43663-2 1-576) (natural protein)
- fold decrease of affinity against unphosphorylated PRC1 [2]: > 10 fold
